Results: publication PMC9865274, “Ultrasensitive Detection of Interleukin 6 by Using Silicon Nanowire Field-Effect Transistors”

Target: Interleukin 6 (IL-6) (Homo sapiens, UniProt P05231 30-212)
Assay: SiNW-FET (gate voltage shift); aptamer immobilized on mSAMs-GA; IL-6 in PBS pH 7.4, 30 min; valid signal from 100 fM (2.1 pg/mL), approx. linear to 10 nM; no Kd; IL-6 in PBS pH 7.4, 30 min incubation, PBS wash; readout in 10 mM bis-tris propane pH 7.4; temperature of binding not stated
Details: protein: commercial

Interleukin 6 (IL-6), sequence (P05231 30-212): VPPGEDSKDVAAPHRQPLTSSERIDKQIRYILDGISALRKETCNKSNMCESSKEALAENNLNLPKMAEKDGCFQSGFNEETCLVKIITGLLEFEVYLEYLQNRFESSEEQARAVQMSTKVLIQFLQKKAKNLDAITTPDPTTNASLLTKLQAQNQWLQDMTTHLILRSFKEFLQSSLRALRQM

**Q.** Does GGTGGCAGGAGGACTATTTATTTGCTTTTCT (ssDNA, 5'-NH2-C6, covalently immobilized via glutaraldehyde on mixed-SAM SiNW-FET) [anti-IL-6 aptamer (31 nt)] bind?
**A.** Result: binds
